These results are taken from patent publication US20250099548A1, “PHARMACEUTICAL COMPOSITION FOR PREVENTING OR TREATING DEGENERATIVE BRAIN DISEASES, CONTAINING GLUCAGON-LIKE PEPTIDE-1 AND INTERLEUKIN-1 RECEPTOR ANTAGONIST” (GI INNOVATION, INC., priority 2022, published 2025).

The conditions of series [1]: in vivo; cited from earlier work.
Series [2] deals with Tg-APP/PS1 mice. In words: MAP-2 immunofluorescence staining of hippocampal CA1 region. Format: in vivo, mouse. To be noted: Example 2; GI210B1, GI210B1C1, GI210B1CN at 1.2, 0.7778, 1.1745 mg/kg intraperitoneal, 4 times for 2 weeks. From the text: Long-term memory is regulated at synapses between axons of neurons and dendrites of target neurons, and the microstructure of neurons is greatly influenced by the state of neuron health. Changes in the microstructure of dendrites of neurons are important for maintaining memory. The microstructure of the dendrites of such neurons can be observed as an image by staining with an anti-MAP-2 antibody (GeneTex, CatNo. GTX133109) located in the dendrites.
Therefore, in order to determine the mechanism of action of cognitive function improvement and memory recovery effects of GI210B1, the Tg-APP/PS1 mice administered with GI210B1 (Tg+GI210B1), the wild type mice (WT) as a normal group, and the Tg-APP/PS1 mice (Tg or Tg+Veh) as a control group were sacrificed, and then the brain tissue was extracted, and the microstructural status of the dendrites (dendritic process) of the hippocampus was analyzed.
In the same manner as in Example 1.4.1 above, the mice from each group were sacrificed, and then the brain tissue was extracted, and the microstructural status of the dendrites of the hippocampus was analyzed.

The subject of series [3] is Tg-APP/PS1 mice. Put plainly: Aβ plaque deposition in brain tissue, thioflavin S staining. Format: in vivo, mouse. To be noted: Example 2; GI210B1, GI210B1C1, GI210B1CN at 1.2, 0.7778, 1.1745 mg/kg intraperitoneal, 4 times for 2 weeks. The method, then: Accordingly, in order to confirm the effect of treating Alzheimer's disease by intraperitoneal administration of GI210B1, the Tg-APP/PS1 mice administered with GI210B1 (Tg+GI210B1) and the Tg-APP/PS1 mice (Tg+Veh), a control group, were sacrificed, and then the brain tissue was extracted, and Aβ plaques were stained using thioflavin S, and then the degree of Aβ plaque deposition in the parietal cortex, hippocampus, and piriform cortex regions was analyzed.
Specifically, for immunohistochemical analysis using thioflavin S staining, the brain was collected after perfusion for the mouse with 4% paraformaldehyde, and then the brain was further fixed with 4% paraformaldehyde overnight at 4° C. The brain tissue sections were prepared by cutting the fixed brain tissue to a thickness of […] using a vibratome. The prepared brain tissue sections were stained using thioflavin S by a known method. At that time, the stained image was analyzed using MetaMorph Microscopy Automation & Image Analysis software (Molecular device). The amount of plaque was quantified and expressed as the number of plaques per unit area and the sum of the plaque areas.
The Tg-APP/PS1 mice were prepared in the same manner as in Example 1.1 above. The test substance was prepared by diluting GI210B1, GI210B1C1, or GI210B1CN obtained in Preparation Example 1 to 3 in saline. Thereafter, the prepared test substances were each intraperitoneally administered to the 6.5-month-old Tg-APP/PS1 mice at a concentration of 1.2 mg/kg, 0.7778 mg/kg, and 1.1745 mg/kg a total of 4 times for 2 weeks (FIG. 23).
In the same manner as in Example 1.3 above, the mice were sacrificed, and then the brain tissue was extracted, and the degree of Aβ plaque deposition in the parietal cortex, hippocampus, and piriform cortex regions was analyzed using thioflavin S, which stains Aβ plaques.
The Tg-APP/PS1 mice were prepared in the same manner as in Example 1.1 above. The test substance was prepared by diluting GLP-1 (Peptron), GI210B1C1 obtained in Preparation Example 2 and GI212B2 obtained in Preparation Example 4, anakinra (Amgen, Kineret-inj), and the anti-IL-1 antibody (BioXcell, BE0246) in saline to concentrations of 0.0371 mg/kg, 1.1745 mg/kg, 1.8722 mg/kg, 0.2041 mg/kg, and 1.77 mg/kg, respectively. Thereafter, the prepared test substances were intraperitoneally administered to the 6.5-month-old Tg-APP/PS1 mice a total of 4 times for 2 weeks, as shown in Table 6 below (FIG. 30). […]
In the same manner as in Example 1.3 above, the mice from each group were sacrificed, and then the brain tissue was extracted, and the degree of Aβ plaque deposition in the parietal cortex, hippocampus, and piriform cortex regions was analyzed using thioflavin S, which stains Aβ plaques.

In the case of “wild type GLP-1: wild type glucagon-like peptide-1, cleaved and inactivated by DPP-4 in vivo; SEQ ID NO: 1”, the biological half-life in series [1] is reported as 1-2 minutes.

B1: GI210B1CN: fusion protein dimer comprising GLP-1 and an Fc domain of IgG4; SEQ ID NO: 22 (protein)
chain: HGEGTFTSDVSSYLEEQAAKEFIAWLVKGGGGGGGSGGGGSGGGGSGGAESKYGPPCPPCPAPEAAGGPSVFLFPPKPKDQLMISRTPEVTCVVVDVSQEDPEVQFNWYVDGVEVHNAKTKPREEQFNSTYRVVSVLTVLHQDWLNGKEYKCKVSNKGLPSSIEKTISKAKGQPREPQVYTLPPSQEEMTKNQVSLTCLVKGFYPSDIAVEWESNGQPENNYKTTPPVLDSDGSFFLYSRLTVDKSRWQEGNVFSCSVLHEALHNHYTQKSLSLSLG
modifications: dimer; GLP-1-IgG4 Fc
B1: the “expression level of MAP-2 in the CA1 region of the hippocampus” value in the series with Tg-APP/PS1 mice [2] is recorded as “higher than that of the control group (Tg+Veh)”. In the series with Tg-APP/PS1 mice [3], the “amount of plaque deposited in the brain (number of plaques per unit area and sum of plaque areas)” value is reported as “tended to be reduced”.
